Measured values from IntAct's records for PubMed 19172740.

B1: tRNA N6-adenosine threonylcarbamoyltransferase (Saccharomyces cerevisiae), P36132 (parent)
chain: MVNLNTIPPKNGRDYYIALGLEGSANKLGVGIVKHPLLPKHANSDLSYDCEAEMLSNIRDTYVTPPGEGFLPRDTARHHRNWCIRLIKQALAEADIKSPTLDIDVICFTKGPGMGAPLHSVVIAARTCSLLWDVPLVGVNHCIGHIEMGREITKAQNPVVLYVSGGNTQVIAYSEKRYRIFGETLDIAIGNCLDRFARTLKIPNEPSPGYNIEQLAKKAPHKENLVELPYTVKGMDLSMSGILASIDLLAKDLFKGNKKNKILFDKTTGEQKVTVEDLCYSLQENLFAMLVEITERAMAHVNSNQVLIVGGVGCNVRLQEMMAQMCKDRANGQVHATDNRFCIDNGVMIAQAGLLEYRMGGIVKDFSETVVTQKFRTDEVYAAWRD
B2: EKC/KEOPS complex subunit BUD32 (Saccharomyces cerevisiae), P53323 (parent)
chain: MTQEFIDKVSSYLTPDVDIAPISQGAEAIVFTTTTHPYLPRAKDSHQKYIIKYRPPKRYRHPQIDQALTKHRTLNESRLLAKLYLIPGLCVPQLIACDPYNGFIWLEFLGEDLPGGHGFSNLKNFLWMHDQDPYSDLVATTLRKVGRQIGLLHWNDYCHGDLTSSNIVLVRDGARWTPHLIDFGLGSVSNLVEDKGVDLYVLERAILSTHSKHAEKYNAWIMEGFEEVYREQGAKGAKKLKEVTKRFEEVRLRGRKRSMLG
partner: B1 chain
B3: EKC/KEOPS complex subunit BUD32 (Saccharomyces cerevisiae), P53323 (parent)
chain: B2 chain
partner: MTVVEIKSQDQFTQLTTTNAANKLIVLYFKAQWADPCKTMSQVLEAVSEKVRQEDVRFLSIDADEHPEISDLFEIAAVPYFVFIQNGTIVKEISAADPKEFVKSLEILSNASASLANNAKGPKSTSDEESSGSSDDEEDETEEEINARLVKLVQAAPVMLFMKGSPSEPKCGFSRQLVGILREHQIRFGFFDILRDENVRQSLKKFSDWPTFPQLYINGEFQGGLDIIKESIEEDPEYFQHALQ

Variants of: B1
Details: with bud32_yeast BUD32, P53323

| effect of a mutation on the interaction | Variant |
| --- | --- |
| disrupting interaction | E292R |
| disrupting interaction | E295R |

Variants of: B1
Details: with bud32_yeast BUD32, P53323
Remark: another data set of the same source

| effect of a mutation on the interaction | Variant |
| --- | --- |
| decreasing interaction | D236R |

Variants of: B2
Details: with kae1_yeast KAE1, P36132

| effect of a mutation on the interaction | Variant |
| --- | --- |
| disrupting interaction | Y59E |

Variants of: B2
Details: with kae1_yeast KAE1, P36132
Remark: another data set of the same source

| effect of a mutation on the interaction | Variant |
| --- | --- |
| decreasing interaction | R72E |

Variants of: B2
Details: with kae1_yeast KAE1, P36132
Remark: another data set of the same source

| effect of a mutation on the interaction | Variant |
| --- | --- |
| disrupting interaction | R60E |

Variants of: B2
Details: with kae1_yeast KAE1, P36132
Remark: another data set of the same source

| effect of a mutation on the interaction | Variant |
| --- | --- |
| disrupting interaction | K57E |

Variants of: B3
Details: with glrx4_yeast GRX4, P32642

| effect of a mutation on the interaction | Variant |
| --- | --- |
| disrupting interaction | D161A |
